Laboratory results published in patent US20230139700A1 (BIO THERA SOLUTIONS, published 2023).

T1: human OX40 on cells (human, UniProt P43489 29-277)
T1 sequence (looked up): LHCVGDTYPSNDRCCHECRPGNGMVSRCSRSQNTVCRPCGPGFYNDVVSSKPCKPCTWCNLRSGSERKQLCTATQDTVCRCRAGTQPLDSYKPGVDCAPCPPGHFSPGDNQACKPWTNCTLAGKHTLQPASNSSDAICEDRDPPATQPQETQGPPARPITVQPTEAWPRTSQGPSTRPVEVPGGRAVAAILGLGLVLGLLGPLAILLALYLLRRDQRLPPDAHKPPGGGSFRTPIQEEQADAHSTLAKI

T2: hOX40-his (human, UniProt P43489 29-216)
T2 construct: range 1-216; Made in HEK293; The stated range starts at residue 1 (holds the signal peptide of the entry); no cleavage site stated; not shown: his tag
T2 sequence (looked up): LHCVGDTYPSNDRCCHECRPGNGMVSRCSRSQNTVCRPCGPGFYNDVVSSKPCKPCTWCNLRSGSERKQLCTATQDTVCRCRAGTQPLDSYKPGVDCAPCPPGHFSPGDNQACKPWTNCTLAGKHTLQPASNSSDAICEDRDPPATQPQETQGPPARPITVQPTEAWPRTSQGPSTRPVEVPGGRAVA

T3: hOX40-FC (human, UniProt P43489 29-216)
T3 construct: range 1-216; Made in HEK293; The stated range 1-216 starts at residue 1, so it holds the signal peptide of the entry; also called human OX40 extracellular region fused to human IgG1-Fc; not shown: human IgG1-Fc, UniProt P01857, residues 104 to 330
T3 sequence (looked up): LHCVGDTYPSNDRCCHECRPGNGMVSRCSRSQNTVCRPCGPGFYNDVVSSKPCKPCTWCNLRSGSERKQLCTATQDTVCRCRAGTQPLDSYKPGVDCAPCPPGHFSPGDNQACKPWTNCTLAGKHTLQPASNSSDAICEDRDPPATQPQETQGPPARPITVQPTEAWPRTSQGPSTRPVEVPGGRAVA

T4: mouse OX40-his (mouse, UniProt P47741 20-211)
T4 construct: also called mOX40-his; not shown: his tag
T4 sequence (looked up): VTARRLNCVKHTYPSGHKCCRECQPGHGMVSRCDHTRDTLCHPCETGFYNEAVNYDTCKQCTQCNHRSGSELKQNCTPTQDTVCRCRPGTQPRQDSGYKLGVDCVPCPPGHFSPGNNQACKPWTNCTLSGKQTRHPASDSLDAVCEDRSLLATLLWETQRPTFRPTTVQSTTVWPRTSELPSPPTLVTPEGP

T5: hCD27-FC (human, UniProt P26842 20-191, limits assumed)
T5 construct: not shown: Fc part
T5 sequence (looked up): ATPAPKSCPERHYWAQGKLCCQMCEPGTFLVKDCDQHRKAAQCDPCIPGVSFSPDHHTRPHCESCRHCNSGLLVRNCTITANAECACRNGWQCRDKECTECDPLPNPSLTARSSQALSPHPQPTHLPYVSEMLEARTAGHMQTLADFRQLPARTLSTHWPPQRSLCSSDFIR

B1: Antibody M (antibody, human IgG1, kappa, V domains shown)
VH: QVQLVESGGGVVQPGESLRLSCAASGFTFSSYGMHWVRQAPGKGLEWVAVIWEDGSNQYYADSVKGRFTISRDNSKNTLYLQMNSLRAEDTAVYYCAKDNQDTSPDVGIDYWGQGTLVTVSS
VL: DIQMTQSPSSLSASVGDRVTITCRASQNISPFLNWYQQKPGKAPKLLIYAAVGLQSGVPSRFSGSGSGTDFTLTISSLQPEDFATYYCQQYTDYPLTFGGGTKVEIKR
notes: also called antibody No. 12; anti-OX40 antibody (antibody M)
B2: Antibody-F23-4k (antibody, human IgG1, kappa, V domains shown)
VH: QVQLEESGGGVVQPGESLRLSCAASGFTFSSYGMHWVRQAPGKGLEWVAVISYDGSNQYYADSVKGRFTISRDNSKNTLYLQMNSLRAEDTAVYYCAKDNQDSSPDVGIDYWGQGTLVTVSS
VL: DIVMTQSPSSLSASVGDRVTITCRASQDILGYVNWYQQKPGKAPILLIYATSGLQGGVPSRFSGSGSGTDFTLTISSLQPEDFATYYCQQYNSYPLTFGGGTKVDIKR
notes: also called antibody No. 4
B3: Antibody-F10 (antibody, human IgG1, kappa, V domains shown)
VH: QVQLQESGGGLEKPGRSLRLSCAASGFTFSSYAMHWVRQAPGKGLEWVAVISYDGSNKYYADSVKGRFTISRDNSKNTLYLQMNSLRAEDTAVYYCARELGVYSGYDTPFDYWGQGTLVTVSS
VL: DIQMTQSPSSLSASVGDRITITCRASRDIRDDLAWYQQKPGGAPKLLIYAASTLQSGVPSRFSGSGSGTDFTLTISSLQPEDFATYYCLQDSDYPLTFGGGTKLEIKR
notes: also called antibody No. 1
B4: OX40mAb24 (antibody, V domains shown)
VH: QVQLQESGPGLVKPSQTLSLTCAVYGGSFSSGYWNWIRKHPGKGLEYIGYISYNGITYHNPSLKSRITINRDTSKNQYSLQLNSVTPEDTAVYYCARYKYDYDGGHAMDYWGQGTLVTVSS
VL: DIQMTQSPSSLSASVGDRVTITCRASQDISNYLNWYQQKPGKAPKLLIYYTSKLHSGVPSRFSGSGSGTDYTLTISSLQPEDFATYYCQQGSALPWTFGQGTKVEIKR
B5: 11D4 (antibody, V domains shown)
VH: EVQLVESGGGLVQPGGSLRLSCAASGFTFSSYSMNWVRQAPGKGLEWVSYISSSSSTIDYADSVKGRFTISRDNAKNSLYLQMNSLRDEDTAVYYCARESGWYLFDYWGQGTLVTVSS
VL: DIQMTQSPSSLSASVGDRVTITCRASQGISSWLAWYQQKPEKAPKSLIYAASSLQSGVPSRFSGSGSGTDFTLTISSLQPEDFATYYCQQYNSYPPTFGGGTKVEIKR

What was measured:
[1] = biological target: T1, human OX40 on cells; assay: cell-based or functional assay
[2] = biological target: T2, hOX40-his; assay: BIACORE, antibody on the probe, 20 nM OX40-his
Description: (§1) Table 10 illustrates the CDRs of eight full antibodies containing these amino acid mutations, and the rest of the sequences are the same as those of antibody-F23-32K. […] The sequences of the anti-OX40 antibody (antibody M) are shown in Table 12; wherein, the expression cells used for the antibodies above (including antibody M) are CHO-S cells, and the method for preparing the antibody M-KF is as follows: the antibody M was identical to the antibody M-KF in terms of amino acid sequence and was expressed by the CHO cell line in which the fut8 gene was knocked out (the content of fucose in antibody M-KF was about 0%).

[3] = biological target: T1, human OX40 on cells; assay: flow cytometry (MFI) on Jurkat cells overexpressing OX40, antibody titration
Description: as §1

[4] = biological target: T1, human OX40 on cells; assay: flow cytometry (MFI) on Jurkat cells overexpressing OX40, antibody titration; the unit nM comes from the legend paragraph 95
Description: as §1

[5] = biological target: T1, human OX40 on cells; assay: flow cytometry on Jurkat-hOX40 cells, 3-fold dilutions from 50 nM, MFI
Protocol: Antibody-F23-4k and antibody-F23-32k, as well as two control antibodies 11D4 and OX40mAb24 at different concentrations were used to incubate Jurkat-hOX40 cells.

[6] = biological target: T3, hOX40-FC; assay: BLI (ForteBio), biotinylated antibody on SA sensor, OX40-Fc 50 nM bivalent, 1:1 model
Protocol: The ForteBio affinity assay was conducted according to the existing conventional method (Estep, P et al., MAbs, 2013, 5(2): 270-8). The brief process is as follows: the sensor was equilibrated offline in an assay buffer (such as PBS) for 20 min and then subjected to online test for 60 s to establish a signal baseline. The purified antibodies obtained as described above were each loaded online onto a corresponding sensor (ForteBio), and finally the ForteBio affinity assay was conducted. The biotinylated candidate antibodies were adsorbed with the SA sensor, and binding and dissociation of hOX40-FC were each detected for about 5 min. The results are shown in Table 4, and N.D indicates not detected in Table 4. Finally, kinetic analysis was performed for all by using a 1:1 binding model.

[7] = biological target: T1, human OX40 on cells; assay: flow cytometry on Jurkat-hOX40 cells, 100 nM antibody, secondary antibody; parental Jurkat as control
Protocol: Jurkat cells overexpressing human OX40 (Jurkat-hOX40 cells) were generated by transfecting pCMV vectors with human OX40 cDNA. Jurkat-hOX40 cells (0.5×10⁶ cells) were incubated with 100 nM experimental antibody in PBS containing 0.1% BSA on ice for 40 min. The cells were then washed twice and incubated with the secondary antibody in PBS containing 0.1% BSA on ice for 25 min. The cells were washed twice and analyzed by flow cytometry on Accuri C6 system (BD Biosciences).

[8] = biological target: T4, mouse OX40-his; assay: ELISA, 10 ng antigen coated, HRP secondary antibody
[9] = biological target: T5, hCD27-FC; assay: as above
[10] = biological target: T6, rhesus monkey OX40-his (rhesus monkey); assay: BLI (Fortebio), protein A sensor - antibody - OX40-his (100 nM)
T6 construct: also called Rh-OX40; Rh-OX40-his

| Binder | Kd [2] | koff [2] | kon [2] | EC50 (read off the curve) [3] | EC50 [4] | EC50 [5] | other results |
| --- | --- | --- | --- | --- | --- | --- | --- |
| B1 | 0.16 nM | 9.77e-05 s⁻¹ | 610000 M⁻¹ s⁻¹ | ~1 nM | 1.2 nM |  | NFκB reporter in Jurkat-hOX40-NFκB-2 cells with Raji cells, activation peak against 11D4 [1]: ~2.5 fold; fold higher affinity than 11D4 [2]: ~9 fold; fold higher affinity than OX40mAb24 [2]: ~21 fold; fold increase of affinity (against antibody-F23-32K) [2]: ~70 fold |
| B2 |  |  |  |  |  | 1.5 nM | Kd [6]: 0.6 nM |
| B3 |  |  |  |  |  |  | binding result [7]: binds |
| B4 |  |  |  |  |  | 5 nM | ELISA (OD value) [8]: 0.17 OD; ELISA (OD value) [9]: 0.2 OD; Kd [10]: 3 nM |
| B5 | 1.31 nM | 0.000461 s⁻¹ | 353000 M⁻¹ s⁻¹ | ~1 nM | 1.17 nM | 1.5 nM |  |
